Data taken from publication PMC10393190 (Genes & Development, 2022).
Residue numbers refer to the chain shown, from its start. Read-outs that look alike come from different tables or passages of the source.

How the values were obtained:
Assay in all cases: EMSA
[1] = molecular target: T1, Rec114-6KR C-terminal domain;Mei4 N-terminal domain (Saccharomyces cerevisiae;Saccharomyces …, UniProt P32841;P29467 375-428;1-43, R395A;K396A;K399A;R400A;K403A;K407A|)
T1 sequence 1: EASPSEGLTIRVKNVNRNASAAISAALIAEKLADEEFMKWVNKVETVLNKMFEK
T1 sequence 2: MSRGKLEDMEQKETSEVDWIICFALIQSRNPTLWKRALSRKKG

Mer2-KKTK mutant = molecular target: T2, Mer2-KKTK mutant (Saccharomyces cerevisiae, UniProt P21651 1-314, K137A;K138A;K140A)
T2 sequence: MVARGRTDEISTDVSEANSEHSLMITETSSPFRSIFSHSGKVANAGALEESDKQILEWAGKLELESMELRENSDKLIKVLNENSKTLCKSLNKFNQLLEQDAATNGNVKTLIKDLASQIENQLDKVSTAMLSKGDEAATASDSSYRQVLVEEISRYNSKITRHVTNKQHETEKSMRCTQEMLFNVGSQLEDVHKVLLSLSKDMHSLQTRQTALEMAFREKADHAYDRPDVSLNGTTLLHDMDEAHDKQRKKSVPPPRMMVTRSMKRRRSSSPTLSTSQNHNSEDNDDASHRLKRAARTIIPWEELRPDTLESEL

IHO1 coiled-coil domain = molecular target: T3, IHO1 coiled-coil domain (Mus musculus, UniProt Q6PDM4 109-267)
T3 sequence: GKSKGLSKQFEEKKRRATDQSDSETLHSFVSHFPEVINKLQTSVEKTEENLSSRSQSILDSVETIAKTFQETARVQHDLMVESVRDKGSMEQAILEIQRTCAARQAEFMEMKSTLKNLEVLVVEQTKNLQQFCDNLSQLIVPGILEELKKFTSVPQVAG

Rec15 coiled-coil domain = molecular target: T4, Rec15 coiled-coil domain (Schizosaccharomyces pombe, UniProt Q09094 1-160)
T4 sequence: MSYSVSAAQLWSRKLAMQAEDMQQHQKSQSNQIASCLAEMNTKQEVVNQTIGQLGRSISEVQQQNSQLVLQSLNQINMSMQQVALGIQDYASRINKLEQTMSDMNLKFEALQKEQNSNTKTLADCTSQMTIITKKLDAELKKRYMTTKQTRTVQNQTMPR

[2] = molecular target: T5, Rec15-5KR coiled-coil domain (Schizosaccharomyces pombe, UniProt Q09094 1-160, K134A;K135A;K141A;K142A;R143A)
T5 sequence: T4 sequence with K134A, K135A, K141A, K142A, R143A

[3] = molecular target: T6, IHO1-KKRR coiled-coil domain (Mus musculus, UniProt Q6PDM4 109-267, K121A;K122A;R123A;R124A)
T6 sequence: T3 sequence with K13A, K14A, R15A, R16A

Mer2 [4] = molecular target: T7, Mer2 (Saccharomyces cerevisiae, UniProt P21651 1-314)
T7 sequence: T2 sequence with A137K, A138K, A140K

Mer2 [5] = molecular target: T7, Mer2; remark: listed apart in the source

B1: HJ40 fluorescent (dd077/cb096/cb097/cb098) (structured_DNA)
DNA 1: CTAGTATAGAGCCGGCGCGCCATGTCTAGATAGCGTTAGGTCTGCCGAATAGTACTACTCGGATCCCGAGCGAACCACGC
DNA 2: GCGTGGTTCGCTCGGGATCCGAGTAGTACTATTCGGCAGAGGATTCGAATAGGCCTAATCGAATTCCGCCATCGATGCAC
DNA 3: GTGCATCGATGGCGGAATTCGATTAGGCCTATTCGAATCCAGACGCGAGTAGATCTTCACGGTACCCGCGGTTACCCGTG
DNA 4: CACGGGTAACCGCGGGTACCGTGAAGATCTACTCGCGTCTCCTAACGCTATCTAGACATGGCGCGCCGGCTCTATACTAG
binding result [1]: no binding | binding result (Mer2-KKTK mutant): binds | binding result (IHO1 coiled-coil domain): binds | binding result (Rec15 coiled-coil domain): binds | binding result [2]: no binding | binding result [3]: no binding

B2: dsDNA 80 bp (cb095/cb100) (dsDNA)
DNA 1: B1 DNA 1
DNA 2: GCGTGGTTCGCTCGGGATCCGAGTAGTACTATTCGGCAGACCTAACGCTATCTAGACATGGCGCGCCGGCTCTATACTAG
apparent K (half saturation) (Mer2 [4]): 36.8 ± 13.3 nM

B3: HJ20 (cb922/cb923/cb924/cb925) (structured_DNA)
DNA 1: CAACGTGGGCAAAGATGTCCTAGCAATGTAATCGTCTATG
DNA 2: ATTCTACCAGTGCCAGTGATGGACATCTTTGCCCACGTTG
DNA 3: ATCCTCTAGACAGCTCCATGATCACTGGCACTGGTAGAAT
DNA 4: CATAGACGATTACATTGCTACATGGAGCTGTCTAGAGGAT
apparent K (half saturation) (Mer2 [5]): 23.9 ± 2.9 nM
